Tests used:
Assay in all cases: cell-based or functional assay
[1] = biological target: HIV-1 Env of isolate MGRM-D-026 (clade D pseudovirus) (HIV-1)
[2] = biological target: HIV-1 NL43 envelope glycoprotein (Env) on pseudovirus (HIV-1)
[3] = biological target: HIV-1 Env of pseudovirus MGRM-AE-001 (clade CRF01_AE) (HIV-1)
[4] = biological target: HIV-1 Env of isolate MGRM-D-028 (clade D pseudovirus) (HIV-1)
[5] = biological target: HIV-1 Env of pseudovirus MGRM-AE-004 (clade CRF01_AE) (HIV-1)
[6] = biological target: HIV-1 Env of isolate THR0.18 (Acute), clade B, on pseudovirus (HIV-1)
[7] = biological target: HIV-1 Env of pseudovirus MGRM-F1-020 (HIV-1)
[8] = biological target: HIV-1 envelope glycoprotein (Env) of isolate MGRM-A-005, clade A (HIV-1)
[9] = biological target: HIV-1 Env of isolate MGRM-D-008 (clade D pseudovirus) (HIV-1)
[10] = biological target: HIV-1 Env of isolate 92UG001 (clade D pseudovirus) (HIV-1)
[11] = biological target: HIV-1 envelope glycoprotein (Env) of isolate MGRM-A-012, clade A (HIV-1)
[12] = biological target: HIV-1 Env of isolate VLGCA1 (clade A pseudovirus) (HIV-1)
[13] = biological target: HIV-1 envelope glycoprotein (Env) of isolate MGRM-A-011, clade A (HIV-1)
[14] = biological target: HIV-1 Env of isolate LAVIC_18 (HIV-1)
[15] = biological target: HIV-1 Env of isolate MGRM-Chronic-B-004, clade B, on pseudovirus (HIV-1)
[16] = biological target: HIV-1 Env of isolate SC422661.8 (Acute), clade B, on pseudovirus (HIV-1)
[17] = biological target: HIV-1 Env of pseudovirus MGRM-G-019 (HIV-1, clade G isolate MGRM-G-019)
[18] = biological target: HIV-1 Env of pseudovirus isolate MGRM-G-025 (HIV-1)
[19] = biological target: HIV-1 APV13 Env (pseudovirus, clade B) (HIV-1)
[20] = biological target: HIV-1 Env of isolate MGRM-A-009 (subtype A) (HIV-1)
[21] = biological target: aMLV envelope, on pseudovirus (negative control virus)
[22] = biological target: HIV-1 Env of isolate QH0692.42 (subtype B) (HIV-1)
[23] = biological target: HIV-1 Env of isolate MGRM-AE-006 (subtype AE) (HIV-1)
[24] = biological target: HIV-1 Env of isolate 92WR009 (HIV-1)
[25] = biological target: HIV-1 Env of isolate 92UG024 (HIV-1)
[26] = biological target: HIV-1 Env of isolate APV-6 (HIV-1)
[27] = biological target: HIV-1 Env of isolate MGRM-Chronic-B-010 (subtype B) (HIV-1)
[28] = biological target: HIV-1 Env of isolate 92TH021 (clade AE), on pseudovirus (HIV-1)
[29] = biological target: HIV-1 envelope glycoprotein (Env) of isolate MGRM-C-009 (HIV-1)
[30] = biological target: HIV-1 Env of isolate THR0.18 (subtype B) (HIV-1)
[31] = biological target: HIV-1 Env of isolate MG RM-D-014 (HIV-1)
[32] = biological target: HIV-1 Env of isolate MGRM-AG-005 (clade AG), on pseudovirus (HIV-1)
[33] = biological target: HIV-1 Env of isolate MGRM-Chronic-B-018 (subtype B) (HIV-1)
[34] = biological target: HIV-1 Env of isolate 93TH305 (HIV-1)
[35] = biological target: HIV-1 Env of isolate MGRM-A-012 (subtype A) (HIV-1)
[36] = biological target: HIV-1 MGRM-C-028 Env (pseudovirus, clade C) (HIV-1)

Sequence of 1443_C16 (PG16) (TCN-116) (antibody) (VH): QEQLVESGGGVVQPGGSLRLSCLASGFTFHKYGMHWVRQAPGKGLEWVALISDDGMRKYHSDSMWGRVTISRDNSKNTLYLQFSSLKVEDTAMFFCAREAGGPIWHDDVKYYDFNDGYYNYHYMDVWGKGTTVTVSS
Sequence of 1443_C16 (PG16) (TCN-116) (antibody) (VL): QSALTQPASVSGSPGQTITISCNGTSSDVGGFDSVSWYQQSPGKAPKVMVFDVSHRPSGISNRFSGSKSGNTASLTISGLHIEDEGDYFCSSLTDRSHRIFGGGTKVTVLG
Sequence of 5329_C19 (PGT-136) (antibody) (VH): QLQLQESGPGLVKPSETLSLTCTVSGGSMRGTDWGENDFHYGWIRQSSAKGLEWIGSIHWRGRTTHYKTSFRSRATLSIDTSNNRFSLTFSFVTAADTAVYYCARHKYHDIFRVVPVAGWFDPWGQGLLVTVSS
Sequence of 5329_C19 (PGT-136) (antibody) (VL): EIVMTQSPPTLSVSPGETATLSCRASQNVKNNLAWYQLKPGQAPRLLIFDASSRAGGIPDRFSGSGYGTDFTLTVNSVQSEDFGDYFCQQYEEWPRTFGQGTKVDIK

Row | Substance | IC50 (µg/ml), pseudovirus neutralization [1] [µg/mL] | IC50, pseudovirus neutralization [2] [µg/mL] | IC50 [3] [µg/mL] | IC50 (µg/ml), pseudovirus neutralization [4] [µg/mL] | IC50 [5] [µg/mL] | IC50 (µg/ml), pseudovirus neutralization [6] [µg/mL] | IC50 (µg/ml), pseudovirus neutralization [7] [µg/mL] | IC50 (µg/ml), pseudovirus neutralization [8] [µg/mL] | IC50 (µg/ml), pseudovirus neutralization [9] [µg/mL] | IC50 (µg/ml), pseudovirus neutralization [10] [µg/mL] | IC50 (µg/ml), pseudovirus neutralization [11] [µg/mL] | IC50 (µg/ml), pseudovirus neutralization [12] [µg/mL] | IC50 (µg/ml), pseudovirus neutralization [13] [µg/mL] | IC50 [14] [µg/mL] | IC50 (µg/ml), pseudovirus neutralization [15] [µg/mL] | IC50 (µg/ml), pseudovirus neutralization [16] [µg/mL] | IC50 (µg/ml), pseudovirus neutralization [17] [µg/mL] | IC50 (µg/mL), pseudovirus neutralization [18] [µg/mL] | IC50 neutralization [19] [µg/mL] | IC50 (µg/mL), pseudovirus neutralization [20] [µg/mL] | other results
1 | 2F5 (antibody) | 4.37 | 2.41 | 0.29 | > 50 | 0.98 | > 50 | 0.59 | 5.7 | > 50 | 13 | 2.36 | 3.9 | > 50 | > 50 | 2.41 | > 50 | > 50 |  |  |  | 
2 | 2G12 (antibody) | > 50 | 0.75 | > 50 | > 50 | > 50 | > 50 | > 50 | > 50 | > 50 | > 50 | > 50 | > 50 | > 50 | > 50 | 8.65 | 0.84 | 31 |  |  |  | 
3 | 4E10 (antibody) | 2.95 | 4.95 | 0.85 | 1.28 | 1.27 | 4.68 | 0.66 | 4.09 | 42.9 | 13.6 | 4.27 | 4.58 | 2.88 | > 50 | 3.7 | 6.35 | 6.53 |  |  |  | 
4 | 1443_C16 (PG16) (TCN-116) (antibody) | > 50 | < 0.0025 | 4.33 | > 50 | 0.002 | 1.34 | 4.35 | 0.09 | > 50 | > 50 | 20.7 | 0.18 | 0.24 | 0.02 | 0.01 | 1.13 | 1.21 |  |  |  | 
5 | 1495_C14 (PGC14) (antibody) | > 50 | 0.373 | > 50 | > 50 | > 50 | > 50 | > 50 | > 50 | > 50 | > 50 | > 50 | > 50 | > 50 | > 50 | > 50 | > 50 | > 50 |  |  |  | 
6 | 5147_N06 (PGT-130) (antibody) |  |  |  |  |  |  |  |  |  |  |  |  |  |  |  |  |  | 8.45 | 0.0345 | 0.308 | IC50, pseudovirus neutralization [21]: > 10 µg/mL; IC50 neutralization [22]: > 50 µg/mL; IC50 (µg/mL), pseudovirus neutralization [23]: 0.009 µg/mL; IC50 [24]: 1.27 µg/mL; IC50 (µg/mL), pseudovirus neutralization [25]: > 50 µg/mL; neutralization IC50 [26]: > 50 µg/mL; IC50 neutralization [27]: 0.006 µg/mL; IC50, pseudovirus neutralization [28]: 0.0082 µg/mL; IC50 (µg/mL), pseudovirus neutralization [29]: > 50 µg/mL; IC50 neutralization [30]: > 50 µg/mL; IC50 (µg/mL), pseudovirus neutralization [31]: 0.061 µg/mL; IC50, pseudovirus neutralization [32]: 0.947 µg/mL; IC50 neutralization [33]: 31.9 µg/mL; neutralization IC50 [34]: 0.021 µg/mL; IC50 (µg/mL), pseudovirus neutralization [35]: > 50 µg/mL; IC50 neutralization [36]: > 10 µg/mL
7 | 5329_C19 (PGT-136) (antibody) |  |  |  |  |  |  |  |  |  |  |  |  |  |  |  |  |  | > 50 | > 10 | > 50 | IC50, pseudovirus neutralization [21]: > 10 µg/mL; IC50 neutralization [22]: > 50 µg/mL; IC50 (µg/mL), pseudovirus neutralization [23]: > 50 µg/mL; IC50 [24]: > 50 µg/mL; IC50 (µg/mL), pseudovirus neutralization [25]: 0.052 µg/mL; neutralization IC50 [26]: > 50 µg/mL; IC50 neutralization [27]: > 50 µg/mL; IC50, pseudovirus neutralization [28]: > 10 µg/mL; IC50 (µg/mL), pseudovirus neutralization [29]: > 50 µg/mL; IC50 neutralization [30]: > 50 µg/mL; IC50 (µg/mL), pseudovirus neutralization [31]: > 50 µg/mL; IC50, pseudovirus neutralization [32]: > 10 µg/mL; IC50 neutralization [33]: > 50 µg/mL; neutralization IC50 [34]: 20.2 µg/mL; IC50 (µg/mL), pseudovirus neutralization [35]: > 50 µg/mL; IC50 neutralization [36]: > 10 µg/mL
8 | 5343_B08 (PGT-135) (antibody) |  |  |  |  |  |  |  |  |  |  |  |  |  |  |  |  |  | 0.592 | 0.545 | > 50 | IC50, pseudovirus neutralization [21]: > 10 µg/mL; IC50 neutralization [22]: > 50 µg/mL; IC50 (µg/mL), pseudovirus neutralization [23]: > 50 µg/mL; IC50 [24]: > 50 µg/mL; IC50 (µg/mL), pseudovirus neutralization [25]: 0.01 µg/mL; neutralization IC50 [26]: > 50 µg/mL; IC50 neutralization [27]: > 50 µg/mL; IC50, pseudovirus neutralization [28]: > 10 µg/mL; IC50 (µg/mL), pseudovirus neutralization [29]: > 50 µg/mL; IC50 neutralization [30]: > 50 µg/mL; IC50 (µg/mL), pseudovirus neutralization [31]: 2.21 µg/mL; IC50, pseudovirus neutralization [32]: > 10 µg/mL; IC50 neutralization [33]: > 50 µg/mL; neutralization IC50 [34]: > 50 µg/mL; IC50 (µg/mL), pseudovirus neutralization [35]: > 50 µg/mL; IC50 neutralization [36]: 2.16 µg/mL
9 | b12 (antibody) | 1.55 | 0.06 | 25.9 | 0.78 | > 50 | 3.62 | > 50 | 3.64 | > 50 | 1.01 | > 50 | > 50 | 4.01 | > 50 | 0.26 | 6.11 | 3.77 |  |  |  | 

Source: US20250320281A1
